# Measured values: the supplement of paper PMC6757056
# ± gives the standard deviation of the averaged measurements.
# B1: library; a variant is named by its letters at N, in order (parent)
# chain: GCUGUCACCGGUGCUUGGUACGUUAUAUUCAGCCGGUCUGAUGAGUCUNNNNNNAGACGAAACAGC
# What was measured:
# [1] = variants of: B1; assay: FACS-Seq fitted mean relative fluorescence mCherry/BFP without ligand (log10 relative fluorescence); HEK293T overexpressing SLC46A1; higher = higher reporter protein expression; settings: without (6R,S)-folinic acid; ligand present: no
# Description: (§1)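 Hammerhead (sTRSV) ribozyme switch libraries with a ligand aptamer grafted on stem I and a randomized N4-6 loop II, cloned into the 3' UTR of mCherry and transiently transfected into HEK293T cells; RNA-Seq 72 h post transfection with ligand added 1 h before transfection; RNA read count / plasmid DNA read count normalized to the non-cleaving sTRSVctl (x100), log10; sequences with >100 DNA reads. FACS-Seq: lentiviral library sorted into 6 bins after 48 h ligand, log-normal fit mean of mCherry/BFP scaled to controls. Printed sequences are partial switch sequences.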
# [2] = variants of: B1; assay: normalized RNA/DNA level without ligand (relative to sTRSVctl = 100) (log10 (% of sTRSVctl)); HEK293T overexpressing SLC46A1; higher = less ribozyme self-cleavage, higher mRNA level; settings: without (6R,S)-folinic acid; ligand present: no
# Description: as §1
# [3] = variants of: B1; assay: FACS-Seq fitted mean relative fluorescence mCherry/BFP with ligand (log10 relative fluorescence); HEK293T overexpressing SLC46A1; ligand concentration (+) FACS-Seq: 6 mM; higher = higher reporter protein expression; settings: with (6R,S)-folinic acid; ligand present: yes
# Description: as §1
# [4] = variants of: B1; assay: normalized RNA/DNA level with ligand (relative to sTRSVctl = 100) (log10 (% of sTRSVctl)); HEK293T overexpressing SLC46A1; ligand concentration (+) RNA-Seq: 6 mM; higher = less ribozyme self-cleavage, higher mRNA level; settings: with (6R,S)-folinic acid; ligand present: yes
# Description: as §1
Variant,FACS-Seq fitted mean (log10) [1],normalized RNA/DNA level without ligand (log10) [2],FACS-Seq fitted mean (log10) [3],normalized RNA/DNA level with ligand (log10) [4]
CAAGAA,0.425 ± 0.21,1.95 ± 0.0095,0.427 ± 0.2,2 ± 0.024
CAAGAG,0.355 ± 0.047,1.903 ± 0.013,0.365 ± 0.14,1.98 ± 0.024
UAAGGA,0.0731 ± 0.084,1.85 ± 0.026,0.217 ± 0.0071,1.997 ± 0.018
UAAGGG,-0.0665 ± 0.0016,1.601 ± 0.002,0.263 ± 0.16,1.92 ± 0.025
AACAUA,0.204 ± 0.049,1.975 ± 0.0044,0.324 ± 0.15,1.99 ± 0.033
AACAUG,0.494 ± 0.1,1.96 ± 0.0024,0.6524 ± 0.0008,2.02 ± 0.022
AACAUC,-0.902 ± 0.27,2.061 ± 0.019,-0.887 ± 0.24,2.06 ± 0.065
GAAGGC,0.492 ± 0.035,1.951 ± 0.006,0.635 ± 0.019,2.009 ± 0.0033
GAAUAC,0.463 ± 0.14,1.974 ± 0.0095,0.313 ± 0.25,2 ± 0.053
GAAUAA,-0.184 ± 0.011,1.976 ± 0.0046,-0.234 ± 0.28,1.989 ± 0.016
AAAUAA,0.0525 ± 0.017,1.94 ± 0.023,0.383 ± 0.051,1.98 ± 0.038
AAAUAG,-0.0965 ± 0.1,1.903 ± 0.006,-0.332 ± 0.53,1.98 ± 0.022
AAAUAC,0.31 ± 0.028,1.988 ± 0.0076,0.0315 ± 0.22,2 ± 0.03
AAAUAU,0.147 ± 0.058,1.949 ± 0.002,0.275 ± 0.077,2 ± 0.039
AACACG,0.361 ± 0.13,1.938 ± 0.0019,0.436 ± 0.18,2 ± 0.045
GAACAA,0.694 ± 0.2,1.976 ± 0.013,0.571 ± 0.25,2 ± 0.033
GAACAG,0.808 ± 0.1,1.959 ± 0.0099,0.638 ± 0.1,2.01 ± 0.03
CAAUAG,0.376 ± 0.018,1.942 ± 0.0058,0.641 ± 0.16,2.011 ± 0.0065
CAAUAA,0.248 ± 0.034,1.934 ± 0.017,0.463 ± 0.091,1.97 ± 0.031
UAACGC,0.334 ± 0.0089,1.993 ± 0.008,0.0549 ± 0.066,2.02 ± 0.045
UAACGA,0.256 ± 0.05,1.93 ± 0.0022,0.34 ± 0.11,2.01 ± 0.036
UAACGG,0.142 ± 0.02,1.705 ± 0.011,0.534 ± 0.11,1.95 ± 0.034
GAAUCG,0.149 ± 0.053,1.966 ± 0.0024,0.372 ± 0.14,2 ± 0.022
GAAUCA,0.429 ± 0.13,2.017 ± 0.005,0.409 ± 0.051,2.01 ± 0.03

Variant,FACS-Seq fitted mean (log10) [1],normalized RNA/DNA level without ligand (log10) [2],FACS-Seq fitted mean (log10) [3],normalized RNA/DNA level with ligand (log10) [4]
CAAUGA,0.153 ± 0.14,1.998 ± 0.0058,0.267 ± 0.16,2.02 ± 0.049
CAAUUA,0.413 ± 0.065,1.963 ± 0.016,0.429 ± 0.07,1.989 ± 0.015
CAAUUC,-0.0653 ± 0.041,2.019 ± 0.012,-0.136 ± 0.18,1.998 ± 0.016
GAAAGG,0.138 ± 0.034,1.902 ± 0.0036,0.0807 ± 0.19,2 ± 0.021
AAACGU,0.248 ± 0.096,1.966 ± 0.011,0.326 ± 0.22,2 ± 0.024
AAACGA,0.186 ± 0.039,2 ± 0.018,0.192 ± 0.16,2.03 ± 0.026
AAACGG,0.359 ± 0.076,1.903 ± 0.013,0.384 ± 0.1,2.006 ± 0.016
UAAAGU,0.553 ± 0.0074,1.886 ± 0.0062,0.894 ± 0.26,1.99 ± 0.045
UAAAGC,0.217 ± 0.12,1.973 ± 0.017,0.319 ± 0.15,2 ± 0.06
UAAAGG,0.0807 ± 0.018,1.631 ± 0.0062,0.507 ± 0.13,1.94 ± 0.035
UAAAGA,0.265 ± 0.1,1.88 ± 0.019,0.312 ± 0.088,1.99 ± 0.029
GACAGG,0.464 ± 0.089,1.959 ± 0.01,0.498 ± 0.27,2.02 ± 0.042
GACAGA,0.403 ± 0.0081,1.994 ± 0.017,0.442 ± 0.15,2.01 ± 0.035
UACAAA,0.165 ± 0.11,1.9485 ± 0.00073,0.179 ± 0.031,1.99 ± 0.019
UACAAG,0.55 ± 0.1,1.74 ± 0.032,0.813 ± 0.031,1.94 ± 0.032
UACAAU,0.467 ± 0.071,1.95 ± 0.02,0.559 ± 0.071,2 ± 0.026
AAAGGG,0.172 ± 0.033,1.671 ± 0.016,0.631 ± 0.087,1.97 ± 0.049
AAAGGA,0.158 ± 0.1,1.909 ± 0.007,0.355 ± 0.16,2 ± 0.027
AAAGGC,0.486 ± 0.051,2.041 ± 0.0056,0.631 ± 0.18,2.04 ± 0.034
UACAUG,0.195 ± 0.2,1.76 ± 0.0019,0.236 ± 0.015,1.97 ± 0.019
UACAUA,0.329 ± 0.1,1.959 ± 0.012,0.058 ± 0.017,2.002 ± 0.0044
AACAGG,0.475 ± 0.12,1.904 ± 0.01,0.351 ± 0.0077,2 ± 0.031
AACAGA,0.344 ± 0.11,1.964 ± 0.01,0.425 ± 0.04,2 ± 0.028
AACAGU,-0.296 ± 0.34,1.94 ± 0.018,0.0957 ± 0.15,2.001 ± 0.0087

Variant,FACS-Seq fitted mean (log10) [1],normalized RNA/DNA level without ligand (log10) [2],FACS-Seq fitted mean (log10) [3],normalized RNA/DNA level with ligand (log10) [4]
GAACGC,0.22 ± 0.11,1.946 ± 0.0053,0.118 ± 0.03,1.99 ± 0.022
GAACGG,0.0676 ± 0.01,1.94 ± 0.032,0.104 ± 0.12,2.018 ± 0.019
GAACGA,0.313 ± 0.13,1.997 ± 0.012,0.623 ± 0.36,2.031 ± 0.02
AAAUUG,0.0771 ± 0.044,1.921 ± 0.0078,0.102 ± 0.18,2.02 ± 0.061
AAAUUC,0.629 ± 0.14,2.03 ± 0.0039,0.471 ± 0.059,2.018 ± 0.016
AAAUUU,0.415 ± 0.0088,2.053 ± 0.0076,0.218 ± 0.093,2.05 ± 0.039
CACAUA,0.25 ± 0.021,1.978 ± 0.0043,0.219 ± 0.3,2.02 ± 0.035
AAAUGG,0.445 ± 0.096,1.87 ± 0.0028,0.499 ± 0.072,2 ± 0.031
AAAUGA,0.485 ± 0.018,1.963 ± 0.005,0.406 ± 0.022,2.04 ± 0.044
AAAUGC,0.594 ± 0.028,2.03 ± 0.007,0.713 ± 0.3,2.03 ± 0.033
AAAAUA,0.397 ± 0.014,1.9645 ± 0.00067,0.47 ± 0.066,2 ± 0.025
AAAAUU,0.432 ± 0.056,2.0158 ± 0.0011,0.29 ± 0.039,2.02 ± 0.031
UAAGUU,0.118 ± 0.029,1.952 ± 0.0089,0.124 ± 0.17,2.01 ± 0.041
UAAGUG,0.502 ± 0.074,1.6686 ± 0.0006,0.881 ± 0.18,1.93 ± 0.055
UAAGUC,0.228 ± 0.093,2.0619 ± 0.00099,0.173 ± 0.12,2.038 ± 0.0091
UAAGAG,0.104 ± 0.05,1.667 ± 0.0094,0.3 ± 0.061,1.96 ± 0.038
UAAGAA,0.023 ± 0.078,1.882 ± 0.011,-0.19 ± 0.37,1.96 ± 0.022
CACAAA,0.458 ± 0.03,1.981 ± 0.014,0.462 ± 0.16,1.99 ± 0.033
UAACCA,0.441 ± 0.11,2.007 ± 0.0037,0.274 ± 0.073,1.98 ± 0.0045
UAACCG,0.215 ± 0.047,1.8952 ± 0.00059,0.522 ± 0.21,2.01 ± 0.028
UAACAG,0.325 ± 0.2,1.829 ± 0.015,0.463 ± 0.16,1.952 ± 0.017
UAACAA,0.381 ± 0.053,1.95 ± 0.02,0.18 ± 0.0065,2 ± 0.037
UAACAC,0.349 ± 0.11,2.008 ± 0.0029,0.223 ± 0.22,2.01 ± 0.046
CAAGUU,0.055 ± 0.13,2 ± 0.021,0.00566 ± 0.18,2.03 ± 0.046
